Patent publication EP1899377B1 (GLAXO GROUP LIMITED, dated 2012)
Like-named read-outs stand apart in the source and are kept apart here.

Columns and labels:
[1] = target: T1, GST-human NOGO-A56 (human, UniProt Q9NQC3 586-785); experiment: SPR off-rate ranking, supernatant from small-scale transient transfection over immobilised GST-human NOGO-A56; single experiment
T1 construct: GST-tagged fusion expressed in E. coli BL21 from pGEX-6P1; also called hNOGO; human NOGO 5+6 GST; not shown: Glutathione S-transferase tag encoded by vector pGEX-6P1 (N-terminal, with vector linker)
T1 sequence: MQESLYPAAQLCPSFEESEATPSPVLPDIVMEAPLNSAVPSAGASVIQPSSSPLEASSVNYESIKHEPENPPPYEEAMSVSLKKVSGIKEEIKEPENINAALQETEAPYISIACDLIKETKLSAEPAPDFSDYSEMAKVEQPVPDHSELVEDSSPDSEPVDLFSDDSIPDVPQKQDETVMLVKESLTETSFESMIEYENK

[2] = target: T1, GST-human NOGO-A56; experiment: SPR (Biacore), GST-human NOGO-A56 immobilised, purified antibody as analyte; single experiment
[3] = target: T1, GST-human NOGO-A56; experiment: as above; remark: listed apart in the source

B1: H23L13 (antibody, human IgG1, kappa, V domains shown)
VH: QVQLVQSGAEVKKPGASVKVSCKASGYTFTSYWMHWVKQRPGQGLEWIGNINPSNGGTNYNEKFKSKATMTVDTSTSTAYMELSSLRSEDTAVYYCELGQGYWGQGTLVTVSS
VL: DIVMTQSPLSLPVTLGQPASISCRSSKSLLYKDGKTYLNWFQQRPGQSPQLLIYLMSTRASGVPDRFSGGGSGTDFTLKISRVEAEDVGVYYCQQLVEYPLTFGQGTKLEIKR
koff [1]: 0.00956 s⁻¹

B2: H23L16 (antibody, human IgG1, kappa, V domains shown)
VH: QVQLVQSGAEVKKPGASVKVSCKASGYTFTSYWMHWVKQRPGQGLEWIGNINPSNGGTNYNEKFKSKATMTVDTSTSTAYMELSSLRSEDTAVYYCELGQGYWGQGTLVTVSS
VL: DIVMTQSPLSNPVTLGQPVSISCRSSKSLLYKDGKTYLNWFLQRPGQSPQLLIYLMSTRASGVPDRFSGGGSGTDFTLKISRVEAEDVGVYYCQQLVEYPLTFGQGTKLEIKR
notes: human gamma1 mutated constant region, human kappa
koff [1]: 0.00606 s⁻¹
Kd [2]: 3.8 nM
koff [2]: 0.0064 s⁻¹
kon [2]: 1.9e+06 M⁻¹ s⁻¹
Kd [3]: 1.99 nM
koff [3]: 0.00587 s⁻¹
kon [3]: 2.95e+06 M⁻¹ s⁻¹

B3: H24L13 (antibody, human IgG1, kappa, V domains shown)
VH: QVQLVQSGAEVKKPGASVKVSCKASGYTFTSYWMHWVKQRPGQGLEWIGNINPSNGGTNYNEKFKSKATLTVDTSTSTAYMELSSLRSEDTAVYYCELGQGYWGQGTLVTVSS
VL: DIVMTQSPLSLPVTLGQPASISCRSSKSLLYKDGKTYLNWFQQRPGQSPQLLIYLMSTRASGVPDRFSGGGSGTDFTLKISRVEAEDVGVYYCQQLVEYPLTFGQGTKLEIKR
koff [1]: 0.00996 s⁻¹

B4: H24L16 (antibody, human IgG1, kappa, V domains shown)
VH: QVQLVQSGAEVKKPGASVKVSCKASGYTFTSYWMHWVKQRPGQGLEWIGNINPSNGGTNYNEKFKSKATLTVDTSTSTAYMELSSLRSEDTAVYYCELGQGYWGQGTLVTVSS
VL: DIVMTQSPLSNPVTLGQPVSISCRSSKSLLYKDGKTYLNWFLQRPGQSPQLLIYLMSTRASGVPDRFSGGGSGTDFTLKISRVEAEDVGVYYCQQLVEYPLTFGQGTKLEIKR
notes: as for B2
koff [1]: 0.00585 s⁻¹
Kd [2]: 3.7 nM
koff [2]: 0.0069 s⁻¹
kon [2]: 1.9e+06 M⁻¹ s⁻¹
Kd [3]: 2.49 nM
koff [3]: 0.00572 s⁻¹
kon [3]: 2.3e+06 M⁻¹ s⁻¹

B5: H23Lc (antibody, human IgG1, kappa, V domains shown)
VH: QVQLVQSGAEVKKPGASVKVSCKASGYTFTSYWMHWVKQRPGQGLEWIGNINPSNGGTNYNEKFKSKATMTVDTSTSTAYMELSSLRSEDTAVYYCELGQGYWGQGTLVTVSS
VL: DIVITQDELSNPVTSGESVSISCRSSKSLLYKDGKTYLNWFLQRPGQSPQLLIYLMSTRASGVSDRFSGSGSGTDFTLEISRVKAEDVGVYYCQQLVEYPLTFGAGTKLELKR
koff [1]: 0.00342 s⁻¹

B6: H24Lc (antibody, human IgG1, kappa, V domains shown)
VH: QVQLVQSGAEVKKPGASVKVSCKASGYTFTSYWMHWVKQRPGQGLEWIGNINPSNGGTNYNEKFKSKATLTVDTSTSTAYMELSSLRSEDTAVYYCELGQGYWGQGTLVTVSS
VL: DIVITQDELSNPVTSGESVSISCRSSKSLLYKDGKTYLNWFLQRPGQSPQLLIYLMSTRASGVSDRFSGSGSGTDFTLEISRVKAEDVGVYYCQQLVEYPLTFGAGTKLELKR
koff [1]: 0.00383 s⁻¹

B7: H20Lc (antibody, human IgG1, kappa, V domains shown)
VH: QVQLVQSGAEVKKPGASVKVSCKASGYTFTSYWMHWVRQAPGQGLEWIGNINPSNGGTNYNEKFKSKATMTRDTSTSTAYMELSSLRSEDTAVYYCELGQGYWGQGTLVTVSS
VL: DIVITQDELSNPVTSGESVSISCRSSKSLLYKDGKTYLNWFLQRPGQSPQLLIYLMSTRASGVSDRFSGSGSGTDFTLEISRVKAEDVGVYYCQQLVEYPLTFGAGTKLELKR
koff [1]: 0.00507 s⁻¹

B8: H21Lc (antibody, human IgG1, kappa, V domains shown)
VH: QVQLVQSGAEVKKPGASVKVSCKASGYTFTSYWMHWVRQRPGQGLEWIGNINPSNGGTNYNEKFKSKATMTRDTSTSTAYMELSSLRSEDTAVYYCELGQGYWGQGTLVTVSS
VL: DIVITQDELSNPVTSGESVSISCRSSKSLLYKDGKTYLNWFLQRPGQSPQLLIYLMSTRASGVSDRFSGSGSGTDFTLEISRVKAEDVGVYYCQQLVEYPLTFGAGTKLELKR
koff [1]: 0.00569 s⁻¹

B9: H19Lc (antibody, human IgG1, kappa, V domains shown)
VH: QVQLVQSGAEVKKPGASVKVSCKASGYTFTSYWMHWVRQRPGQGLEWIGNINPSNGGTNYNEKFKSRATMTRDTSTSTAYMELSSLRSEDTAVYYCELGQGYWGQGTLVTVSS
VL: DIVITQDELSNPVTSGESVSISCRSSKSLLYKDGKTYLNWFLQRPGQSPQLLIYLMSTRASGVSDRFSGSGSGTDFTLEISRVKAEDVGVYYCQQLVEYPLTFGAGTKLELKR
koff [1]: 0.00595 s⁻¹
